# Assay results: the supplement of paper PMC12764529
# ± gives the half width of the 95% confidence interval.
# What was measured:
# [1] = folding stability dG unfold from trypsin proteolysis; higher = more stable
# Method in brief: (§1)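 Designed mini-proteins (under 80 residues, no cysteine) in a PA-tagged cDNA display construct were digested with trypsin and chymotrypsin. Each protease was used at 11 concentrations (threefold dilutions) plus a no-protease condition, followed by sequencing. K50 was inferred by Bayesian fitting of sequencing counts, and unfolding free energy was derived against a sequence-predicted unfolded-state K50 and a shared folded-state K50, per protease or combined. Only designs with AlphaFold2 dimer inter-PAE above 15 were kept.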
# [2] = folding stability dG unfold from chymotrypsin proteolysis; higher = more stable
# Method in brief: as §1
# [3] = folding stability dG unfold (combined trypsin and chymotrypsin); higher = more stable
# Method in brief: as §1
Sequence,folding stability dG unfold [1] [kJ/mol],folding stability dG unfold [2] [kJ/mol],folding stability dG unfold [3] [kJ/mol]
SAGGSAGGSAGMIKKVKISRTSDGTVTRTTEYLETDKPGVPKVVTTEVETVTLAPSEPLFSAGGSAGGSAGG [r11_517_JUSTAS],-4.63 ± 2.13,3.81 ± 0.163,2.12 ± 0.351
SAGGSAGGSAGMINPKDVVEVSSSTDPNSSSGTLTVTLKDGKEITISYSSSSEAEAALLGSAGGSAGGSAGG [r11_339_JUSTAS],4.61 ± 0.255,6.34 ± 0.502,6.01 ± 0.837
SAGGSAGGSAGMIVFTLPDGGLALVLNIEYELEPDEDGNLIIRPRISLSIFPVPADFPILSAGGSAGGSAGG [r17_480_TrMRF],13.4 ± 0.377,18.9 ± 0.285,17.5 ± 0.502
SAGGSAGGSAGMIVVKSKEEIEALKKAGYEIEVKEVTVYDPKTGKKKDKFLVIEIKPKKKSAGGSAGGSAGG [r11_168_TrROS_Hall],5.24 ± 0.628,5.36 ± 0.251,5.4 ± 0.711
SAGGSAGGSAGMKITIDGKVAEIEEVEVDGKLYYFIRVEGRLYVFDVETGEIREISPEDLSAGGSAGGSAGG [r11_9_TrROS_Hall],13.1 ± 0.31,17.41 ± 0.138,16.4 ± 0.226
SAGGSAGGSAGMKITVTITTTTTVSVEPPESSAAVGPVVYRQTLTLNLSPEEAAALLKKSSAGGSAGGSAGG [r17_283_JUSTAS],4.9 ± 0.146,4.84 ± 0.586,5.24 ± 0.46
SAGGSAGGSAGMKPGEKVLLVKIKIKNENGEEETILVEMSLEELKKLLEEENIEVEILELSAGGSAGGSAGG [r17_313_TrROS_Hall],16.2 ± 0.711,9.48 ± 0.163,12.7 ± 0.418
SAGGSAGGSAGMKPGQKEEVKIPIMGMIPVDGRTFMIRFDITVKAPGAIKIELDIIPGFPSAGGSAGGSAGG [r11_551_TrROS],13.6 ± 0.669,19.8 ± 1.21,17.7 ± 0.879
SAGGSAGGSAGMKTVLSTKTEPSPEDLTVTTVTLGDKVYTIIYDPKTGKPLKVIPAGEFKSAGGSAGGSAGG [r11_851_JUSTAS],-0.165 ± 0.418,5.23 ± 0.389,3.59 ± 0.502
SAGGSAGGSAGMKVTATSLNPASGTVTVKFSDGTTRTFSSVEALKAAIPEGVPIEIAPAVSAGGSAGGSAGG [r17_295_JUSTAS],10.3 ± 0.544,9.61 ± 0.0502,9.85 ± 0.213
SAGGSAGGSAGMKYKATIPLPDGTTLTYESEDPEKAIEEITKETGVPKSKITITPIPELESAGGSAGGSAGG [r17_169_JUSTAS],1.38 ± 0.126,2.97 ± 0.402,2.5 ± 0.406
SAGGSAGGSAGMLETIELPDGKRVRYDPVTGEWFVELDPELEEEVRERLDPDLPVRFEEVSAGGSAGGSAGG [r11_374_JUSTAS],7.27 ± 0.339,6.43 ± 0.264,6.8 ± 0.238
SAGGSAGGSAGMLRVRAVIKRPGGELEELTDVTEEEVLAYAREKGWEIEELKVISPSEKPSAGGSAGGSAGG [r11_283_JUSTAS],5.13 ± 0.226,8 ± 0.502,6.85 ± 0.544
SAGGSAGGSAGMLVYRTVVTTEVLETETTSFPTPEGPYVTTTTVTVKTTVTVEKLTPELLSAGGSAGGSAGG [r11_24_JUSTAS],11.2 ± 0.586,10.9 ± 0.172,11.5 ± 0.837
SAGGSAGGSAGMNPVVIETTETLPNGTVVRTTEIVDPSNPDKVVSTKTEISSVPSNAPLLSAGGSAGGSAGG [r17_299_JUSTAS],1.43 ± 0.343,0.471 ± 0.18,0.93 ± 0.46
SAGGSAGGSAGMPIKTLKTTLVSVEKEPPGEGSYITTKSVTEFPDGSKSVTTTTVPASLLSAGGSAGGSAGG [r17_268_JUSTAS],-2.73 ± 2.47,-0.954 ± 1.13,-2.41 ± 1.84
SAGGSAGGSAGMPLKVTVLSTSPLLESSELVTVKITPPDGSVVVIPSSVSLEEVEKLLLSSAGGSAGGSAGG [r17_353_JUSTAS],3.28 ± 0.1,0.209 ± 0.293,2.33 ± 0.213
SAGGSAGGSAGMPTLKIKVLVRNEETGEWQEVEIELPEGMTLEELLAALPPEQVERVEPVSAGGSAGGSAGG [r11_386_TrROS_Hall],10.1 ± 0.628,12.9 ± 0.247,11.9 ± 0.305
SAGGSAGGSAGMPVITVDVYEDDNTYTITITLSDGTPVVVTVTSPDTPVEEAVAAVIAALSAGGSAGGSAGG [r11_313_JUSTAS],14.4 ± 0.628,11.6 ± 0.669,13.2 ± 0.669
SAGGSAGGSAGMRIRAEVVEISPPGAVIVLRYEIEFPLPDDEPVRLEFDAVLYIPVPPEASAGGSAGGSAGG [r11_689_TrMRF],11 ± 0.502,17.4 ± 0.41,15.5 ± 0.544
SAGGSAGGSAGMRLVTFTVPGSAISVSTPGGATVVSVEKLPGDLVRVTVEIPEGAPPGLQSAGGSAGGSAGG [r17_48_JUSTAS],4.68 ± 0.0544,7.38 ± 0.121,6.51 ± 0.192
